Data: the supplement of paper PMC11780869

Tested on: Bacillus subtilis
Experiment: cleaved RNA product abundance (RNA/gDNA barcode ratio) relative to median wild-type variant (ratio to wild type); higher = more accumulation of the downstream cleavage product
Conditions: cleavage site: cggR-gapA (positions -7 to +36 mutated)
Procedure: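 MPRA in B. subtilis. Mutagenized RNase Y cleavage-site regions (9% mutation rate) were inserted into a barcoded reporter mRNA (truncated aprE or tetM). Cells were grown in LB at 37°C to OD600 0.3. The cleaved RNA isoform was gel-purified and its barcodes counted; the RNA:gDNA barcode ratio was normalised to the median wild-type variant, and the median over barcodes is reported per variant. The printed sequence is the variable window only; the reporter flanks are not printed.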

[1] = experiment (reporter, strain, medium): exp 4a: truncated aprE reporter, strain BJT201 with 2% xylose (RNase J1 expressed)
[2] = experiment (reporter, strain, medium): exp 2b: truncated aprE reporter, strain BJT200
[3] = experiment (reporter, strain, medium): exp 6: tetM reporter, strain 168

| Sequence | cleaved RNA product abundance [1] | cleaved RNA product abundance [2] | cleaved RNA product abundance [3] |
| --- | --- | --- | --- |
| ACAGACGAAGGAGCCGCAAAAAAGTTCTTAAGGGATGAATAATCCCTCAATATAAATATCTCTCACTTATTTAAA | 0.218 | – | – |
| ACAGACGAAGGAGCCGCAAAAAAGTTGTTAAGGGATGAATAATCCCTCAATATAAATATCTCTCACTTATTTAAA | 0.355 | 0.388 | – |
| ACAGACGAAGGAGCCGCAAAAAAGTTTTTAAGGGATGAATAATCCCTCAATATAAATATCTCTCACTTATTTAAA | 0.435 | 0.281 | – |
| ACAGACGAAGGAGCCGCAAAAAATTTATTAAGCGATGAATAATCCCTCAATATAAATATCTCTCACTTATTTAAA | 0.113 | – | – |
| ACAGACGAAGGAGCCGCAAAAAATTTATTAAGGGATGAATAATCCCTCAATATAAATATCTCTCACTTATTTAAA | 0.66 | 1.19 | – |
| ACAGACGAAGGAGCCGCAAAAACGTTATTAAGGGATGAATAATCCCTCAATATAAATATCTCTCACTTATTTAAA | 1.04 | – | – |
| ACAGACGAAGGAGCCGCAAAAAGGTTATTAAGGGATGAATAATCCCTCAATATAAATATCTCTCACTTATTTAAA | 1.68 | – | – |
| ACAGACGAAGGAGCCGCAAAAATGTTATTAAGGGATGAATAATCCCTCAATATAAATATCTCTCACTTATTTAAA | 0.983 | – | – |
| ACAGACGAAGGAGCCGCAAAACAGTTATTAAGGGATGAATAATCCCTCAATATAAATATCTCTCACTTATTTAAA | 0.897 | 0.865 | – |
| ACAGACGAAGGAGCCGCAAAAGAAGTTATTAAGGGATGAATAATCCCTCAATATAAATATCTCTCACTTATTTAA | 1.06 | – | – |
| ACAGACGAAGGAGCCGCAAAATAGTTATTAAGGGATGAATAATCCCTCAATATAAATATCTCTCACTTATTTAAA | 0.703 | – | – |
| ACAGACGAAGGAGCCGCAAACAAATTATTAAGGGATGAATAATCCCTCAATATAAATATCTCTCACTTATTTAAA | 0.696 | 0.711 | – |
| ACAGACGAAGGAGCCGCAAACAACTTATTAAGGGATGAATAATCCCTCAATATAAATATCTCTCACTTATTTAAA | – | 0.172 | – |
| ACAGACGAAGGAGCCGCAAACAAGATATTAAGGGATGAATAATCCCTCAATATAAATATCTCTCACTTATTTAAA | 0.827 | – | – |
| ACAGACGAAGGAGCCGCAAACAAGGTATTAAGGGATGAATAATCCCTCAATATAAATATCTCTCACTTATTTAAA | 1.23 | – | – |
| ACAGACGAAGGAGCCGCAAACAAGTAATTAAGGGATGAATAATCCCTCAATATAAATATCTCTCACTTATTTAAA | 0.214 | 0.177 | – |
| ACAGACGAAGGAGCCGCAAACAAGTGATTAAGGGATGAATAATCCCTCAATATAAATATCTCTCACTTATTTAAA | 0.27 | 0.223 | – |
| ACAGACGAAGGAGCCGCAAACAAGTTAATAAGGGATGAATAATCCCTCAATATAAATATCTCTCACTTATTTAAA | 0.274 | – | – |
| ACAGACGAAGGAGCCGCAAACAAGTTACTAAGGGATGAATAATCCCTCAATATAAATATCTCTCACTTATTTAAA | – | 0.169 | – |
| ACAGACGAAGGAGCCGCAAACAAGTTATAAAAGGATGAATAATCCCTCAATATAAATATCTCTCACTTATTTAAA | – | 0.139 | – |

| Sequence | cleaved RNA product abundance [1] | cleaved RNA product abundance [2] | cleaved RNA product abundance [3] |
| --- | --- | --- | --- |
| ACAGACGAAGGAGCCGCAAACAAGTTATAAAGGGATGAATAATCCCTCAATATAAATATCTCTCACTTATTTAAA | 0.408 | – | – |
| ACAGACGAAGGAGCCGCAAACAAGTTATGAAGGGATGAATAATCCCTCAATATAAATATCTCTCACTTATTTAAA | 0.239 | – | – |
| ACAGACGAAGGAGCCGCAAACAAGTTATTAAAGGATGAATAATCCCTCAATATAAATATCTCTCACTTATTTAAA | 0.116 | 0.121 | – |
| ACAGACGAAGGAGCCGCAAACAAGTTATTAAAGGATGAATAATCCCTCATTATAAATATCTCTCACTTATTTAAA | 0.115 | – | – |
| ACAGACGAAGGAGCCGCAAACAAGTTATTAAATGATGAATAATCCCTCAATATAAATATCTCTCACTTATTTAAA | 0.101 | – | – |
| ACAGACGAAGGAGCCGCAAACAAGTTATTAACGGATGAATAATCCCTCAATATAAATATCTCTCACTTATTTAAA | 0.0915 | 0.111 | – |
| ACAGACGAAGGAGCCGCAAACAAGTTATTAAGAGATGAATAATCACTCAATATAAATATCTCTCACTTATTTAAA | 0.126 | 0.106 | – |
| ACAGACGAAGGAGCCGCAAACAAGTTATTAAGAGATGAATAATCCCTCAATATAAATATCTCTCACTTATTTAAA | 0.118 | 0.0959 | – |
| ACAGACGAAGGAGCCGCAAACAAGTTATTAAGCGATGAATAATCCCTCAATATAAATATCTCTCACTTATTTAAA | 0.0647 | 0.0729 | – |
| ACAGACGAAGGAGCCGCAAACAAGTTATTAAGGAATGAATAATCCCTCAATATAAATATCTCTCACTTATTTAAA | 0.123 | 0.115 | 0.139 |
| ACAGACGAAGGAGCCGCAAACAAGTTATTAAGGGAAGAATAATCCCTCAATATAAATATCTCTCACTTATTTAAA | 0.558 | – | – |
| ACAGACGAAGGAGCCGCAAACAAGTTATTAAGGGACGAATAATCCCTCAATATAAATATCTCTCACTTATTTAAA | 0.279 | – | – |
| ACAGACGAAGGAGCCGCAAACAAGTTATTAAGGGATAAATAATCCCTCAATATAAATATCTCTCACTTATTTAAA | 0.649 | – | – |
| ACAGACGAAGGAGCCGCAAACAAGTTATTAAGGGATCAATAATCCCTCAATATAAATATCTCTCACTTATTTAAA | 0.443 | – | – |
| ACAGACGAAGGAGCCGCAAACAAGTTATTAAGGGATGAAAAATCCCTCAATATAAATATCTCTCACTTATTTAAA | 0.359 | – | – |
| ACAGACGAAGGAGCCGCAAACAAGTTATTAAGGGATGAACAATCCCTCAATATAAATATCTCTCACTTATTTAAA | 0.451 | – | – |
| ACAGACGAAGGAGCCGCAAACAAGTTATTAAGGGATGAATAAACCCTCAATATAAATATCTCTCACTTATTTAAA | 0.38 | 0.29 | – |
| ACAGACGAAGGAGCCGCAAACAAGTTATTAAGGGATGAATAATACCTCAATATAAATATCTCTCACTTATTTAAA | 0.12 | 0.107 | – |
| ACAGACGAAGGAGCCGCAAACAAGTTATTAAGGGATGAATAATCACTCAATATAAATATCTCTCACTTATTTAAA | 0.127 | – | – |
| ACAGACGAAGGAGCCGCAAACAAGTTATTAAGGGATGAATAATCCATCAATATAAATATCTCTCACTTATTTAAA | 0.192 | 0.182 | – |

| Sequence | cleaved RNA product abundance [1] | cleaved RNA product abundance [2] | cleaved RNA product abundance [3] |
| --- | --- | --- | --- |
| ACAGACGAAGGAGCCGCAAACAAGTTATTAAGGGATGAATAATCCCACAATATAAATATCTCTCACTTATTTAAA | 0.255 | 0.109 | – |
| ACAGACGAAGGAGCCGCAAACAAGTTATTAAGGGATGAATAATCCCCCAATATAAATATCTCTCACTTATTTAAA | 0.137 | – | – |
| ACAGACGAAGGAGCCGCAAACAAGTTATTAAGGGATGAATAATCCCTAAATATAAATATCTCTCACTTATTTAAA | 0.47 | – | – |
| ACAGACGAAGGAGCCGCAAACAAGTTATTAAGGGATGAATAATCCCTCAAAATAAATATCTCTCACTTATTTAAA | 0.257 | 0.194 | – |
| ACAGACGAAGGAGCCGCAAACAAGTTATTAAGGGATGAATAATCCCTCAACATAAATATCTCTCACTTATTTAAA | 0.25 | – | – |
| ACAGACGAAGGAGCCGCAAACAAGTTATTAAGGGATGAATAATCCCTCAAGATAAATATCTCTCACTTATTTAAA | – | 0.17 | – |
| ACAGACGAAGGAGCCGCAAACAAGTTATTAAGGGATGAATAATCCCTCAATAAAAATATCTCTCACTTATTTAAA | 0.1 | – | – |
| ACAGACGAAGGAGCCGCAAACAAGTTATTAAGGGATGAATAATCCCTCAATATAAATAACTCTCACTTATTTAAA | – | 0.576 | – |
| ACAGACGAAGGAGCCGCAAACAAGTTATTAAGGGATGAATAATCCCTCAATATAAATATCTCTCACTTATTTAAA | 0.738 | 0.78 | 0.707 |
| ACAGACGAAGGAGCCGCAAACAAGTTATTAAGGGATGAATAATCCCTCAATATAAATTTCTCTCACTTATTTAAA | 0.298 | – | – |
| ACAGACGAAGGAGCCGCAAACAAGTTATTAAGGGATGAATAATCCCTCAATATAACTATCTCTCACTTATTTAAA | 0.0791 | – | – |
| ACAGACGAAGGAGCCGCAAACAAGTTATTAAGGGATGAATAATCCCTCAATATACATATCTCTCACTTATTTAAA | 0.536 | 0.644 | – |
| ACAGACGAAGGAGCCGCAAACAAGTTATTAAGGGATGAATAATCCCTCAATATTAATATCTCTCACTTATTTAAA | – | 0.12 | – |
| ACAGACGAAGGAGCCGCAAACAAGTTATTAAGGGATGAATAATCCCTCATTATAAATATCTCTCACTTATTTAAA | 0.337 | – | – |
| ACAGACGAAGGAGCCGCAAACAAGTTATTAAGGGATGAATAATCCCTCCATATAAATATCTCTCACTTATTTAAA | 0.207 | – | – |
| ACAGACGAAGGAGCCGCAAACAAGTTATTAAGGGATGAATAATCCCTCTATATAAATATCTCTCACTTATTTAAA | 0.46 | – | – |
| ACAGACGAAGGAGCCGCAAACAAGTTATTAAGGGATGAATAATCCCTGAATATAAATATCTCTCACTTATTTAAA | 0.455 | – | – |
| ACAGACGAAGGAGCCGCAAACAAGTTATTAAGGGATGAATAATCCCTTAATATAAATATCTCTCACTTATTTAAA | 0.287 | – | – |
